Results as given in publication PMC11784021, “Structural basis for nuclear import of adeno-associated virus serotype 6 capsid protein” (Journal of Virology, 2024).
“And” between values parts separate entries of the source, which are not always exact repeats. Equal values may be shown once. Primed or numbered codes have the meaning given here. Ends that are not written are not given here. FITC′ = fluorescein isothiocyanate; Ahx = NCCCCCC(=O)O

Experiments:
Settings in all cases: both partners purified
[1] = biological target: T1, mouse importin α2 lacking residues 1-70 (IMPα2ΔIBB) (mouse, UniProt P52293 71-529); assay: fluorescence polarisation; FITC-tagged AAV6 VP1-BR peptide at 2 nM; importin isoforms serially diluted from an upper concentration of 4.5 µM; three independent experiments
[2] = biological target: T2, human importin α3 lacking the IBB domain (hIMPα3ΔIBB) (human, UniProt O00629 59-521); assay: as above
T2 construct: pET30a, His tag with TEV site; also called ΔIBB-IMPα3
T2 sequence (looked up): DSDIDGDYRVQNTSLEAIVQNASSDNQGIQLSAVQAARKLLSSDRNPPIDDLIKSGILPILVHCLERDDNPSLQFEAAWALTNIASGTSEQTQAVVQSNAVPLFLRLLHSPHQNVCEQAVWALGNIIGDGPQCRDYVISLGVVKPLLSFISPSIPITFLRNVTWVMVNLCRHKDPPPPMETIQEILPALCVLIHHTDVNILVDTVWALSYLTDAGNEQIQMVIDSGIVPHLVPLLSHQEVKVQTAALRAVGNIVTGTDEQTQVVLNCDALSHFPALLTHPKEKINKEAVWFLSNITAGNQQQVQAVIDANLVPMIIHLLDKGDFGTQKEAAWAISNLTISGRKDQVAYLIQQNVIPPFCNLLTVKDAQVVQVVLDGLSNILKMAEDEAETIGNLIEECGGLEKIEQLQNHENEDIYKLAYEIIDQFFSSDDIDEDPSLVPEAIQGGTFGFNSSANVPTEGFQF

[3] = biological target: T3, human importin α5 lacking the IBB domain (hIMP5ΔIBB) (human, UniProt P52294 58-538); assay: as above
T3 construct: pET30a, His tag with TEV site; also called IMPα5; ΔIBB-IMPα5

[4] = biological target: T4, human importin α7 lacking the IBB domain (hIMPα7ΔIBB) (human, UniProt O60684 61-536); assay: as above
T4 construct: pET30a, His tag with TEV site; also called ΔIBB-IMPα7

[5] = biological target: T1, mouse importin α2 lacking residues 1-70 …; assay: crystal structure; co-purified complex of AAV6 VP1-BR and IMPα2; hanging drop, 0.7 M sodium citrate, 0.01 M dithiothreitol, 0.1 M HEPES pH 7.5, 22°C; 2.3 Å

T4 sequence (O60684 61-536, stated change not applied): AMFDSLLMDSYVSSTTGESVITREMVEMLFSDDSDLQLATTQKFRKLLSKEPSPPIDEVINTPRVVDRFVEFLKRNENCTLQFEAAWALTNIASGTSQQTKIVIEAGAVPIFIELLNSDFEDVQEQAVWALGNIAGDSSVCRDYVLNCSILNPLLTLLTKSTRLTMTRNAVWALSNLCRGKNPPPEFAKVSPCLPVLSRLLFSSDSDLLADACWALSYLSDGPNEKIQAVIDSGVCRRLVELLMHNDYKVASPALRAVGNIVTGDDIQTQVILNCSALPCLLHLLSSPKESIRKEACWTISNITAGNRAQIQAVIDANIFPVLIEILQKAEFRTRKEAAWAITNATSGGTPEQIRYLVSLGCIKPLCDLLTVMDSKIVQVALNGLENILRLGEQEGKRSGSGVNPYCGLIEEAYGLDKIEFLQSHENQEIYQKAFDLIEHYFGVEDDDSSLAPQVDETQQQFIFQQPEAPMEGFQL
T3 sequence (P52294 58-538, stated change not applied): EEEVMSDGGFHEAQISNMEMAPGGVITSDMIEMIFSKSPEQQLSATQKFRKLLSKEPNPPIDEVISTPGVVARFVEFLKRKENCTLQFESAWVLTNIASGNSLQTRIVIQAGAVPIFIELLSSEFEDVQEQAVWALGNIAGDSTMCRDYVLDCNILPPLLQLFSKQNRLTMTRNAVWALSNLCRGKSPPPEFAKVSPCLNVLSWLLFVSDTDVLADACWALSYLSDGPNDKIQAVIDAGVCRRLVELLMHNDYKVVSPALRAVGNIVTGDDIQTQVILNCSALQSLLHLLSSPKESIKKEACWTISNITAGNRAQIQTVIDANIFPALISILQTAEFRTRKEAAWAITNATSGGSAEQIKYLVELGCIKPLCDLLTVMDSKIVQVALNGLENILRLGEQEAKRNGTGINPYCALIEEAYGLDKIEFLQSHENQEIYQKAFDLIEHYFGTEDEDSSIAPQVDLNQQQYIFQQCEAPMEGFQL

B1: AAV6 VP1-BR FITC-tagged peptide (residues 120-172) (peptide)
peptide: {FITC′-Ahx}-QAKKRVLEPFGLVEEGAKTAPGKKRPVEQSPQEPDSSSGIGKTGQQPAKKRLN
notes: also called FITC-tagged AAV6 VP1-BR; AAV6 VP1-BR FITC peptide; source: synthetic peptide (GenScript)
Kd [1]: 265 nM
Kd [2]: 198 nM
Kd [3]: 71 nM
Kd [4]: 23 nM and 24 nM

B2: AAV6 VP1-BR (recombinant, residues 115-174) (domain or fragment)
chain: GRAVFQAKKRVLEPFGLVEEGAKTAPGKKRPVEQSPQEPDSSSGIGKTGQQPAKKRLNFG
notes: A TEV protease site stands upstream of the insert 'for GST-tag cleavage'; 15 residues of it are seen in the final model; also called AAV6 VP1 basic region; source: E. coli (codon optimized, pGEX4T-1), co-purified with IMPα2
binding result [5]: binds
